Laboratory results: the supplement of paper PMC12764529
± gives the half width of the 95% confidence interval.

How the values were obtained:
[1] = folding stability dG unfold from trypsin proteolysis; higher = more stable
Summary of the method: (§1)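 Bayesian fitting of sequencing counts gave K50 for each design. Unfolding free energy followed by setting this against a sequence-predicted unfolded-state K50 and a shared folded-state K50, either per protease or with trypsin and chymotrypsin combined. The designs, under 80 residues and lacking cysteine, were digested in a PA-tagged cDNA display format at 11 threefold-diluted protease concentrations and without protease, and only those with AlphaFold2 dimer inter-PAE above 15 were kept.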

[2] = folding stability dG unfold from chymotrypsin proteolysis; higher = more stable
Summary of the method: as §1

[3] = folding stability dG unfold (combined trypsin and chymotrypsin); higher = more stable
Summary of the method: as §1

| Sequence | folding stability dG unfold [1] [kcal/mol] | folding stability dG unfold [2] [kcal/mol] | folding stability dG unfold [3] [kcal/mol] |
| --- | --- | --- | --- |
| SAGPTVRIHLPGFEPIRFPPGDELALPFPNGYYLIIRRKPDGEVEVFPMGGEERKLPDADEVEIYMFPASAG [r5_869_TrROS] | 0.665 ± 0.11 | 1.32 ± 0.15 | 1.07 ± 0.13 |
| SAGPTVTVELEIRLPPELRGLSPEELAELLARELEEAGYTVEVVEVEEEDGYVTVRVRVTVPLPPPPPESAG [r5_80_TrROS_Hall] | 3.59 ± 0.11 | 3.29 ± 0.13 | 3.52 ± 0.13 |
| SAGPVIATADVEVYEDGTAKITLTLRTLTENGELLPDVTLPITLPLPPGSKATITVNLDDGEITITVGDSAG [r5_179_TrMRF] | 4.07 ± 0.12 | 3.79 ± 0.16 | 3.96 ± 0.11 |
| SAGPVLLELESPSGGRYRIALPPNVTEIRRVGDRFIIRLPDGFSLVIEVDEDEPPSTLNDIKILAVIPSAGG [r19_274_TrMRF] | 2.19 ± 0.03 | 2.41 ± 0.045 | 2.38 ± 0.043 |
| SAGPVVEVKPLETQALPDGSVRVVAEVTIKDPNSEKTTVVTVEATARVAPDGRPVSIEEIVEKAIKELKSAG [r5_604_JUSTAS] | 0.801 ± 0.043 | 1.26 ± 0.046 | 1.06 ± 0.057 |
| SAGPYYIITVTIPLPNLSPDLQEDFPGQKVTFMFIVDPGMDMEQKRQIKEELRDFGIKDVDIMPADDIKSAG [r5_60_TrROS] | 1.27 ± 0.026 | 2.58 ± 0.03 | 2.2 ± 0.1 |
| SAGQIVTTDPATGVTTVTIPFPDGSYATITITVEKLTPDKESIVSVDVDFKDKGKKVVPAAVLVEEILSSAG [r5_842_JUSTAS] | 0.25 ± 0.084 | 1.07 ± 0.11 | 0.851 ± 0.17 |
| SAGQLPPGETYTAEIEIRKNEPITLEEIAKKLPGYEFDSVKVEPMPDGWTRITITMTPGDVDKIQDAIRSAG [r5_554_TrROS] | 0.92 ± 0.044 | 1.87 ± 0.031 | 1.65 ± 0.092 |
| SAGRFIRIRFKDPGMSMDNLVKEIKEELGIPPDHKVTIDWEPDPNGGYEITIQVDDPQVRDKILEALRSAGG [r19_215_TrROS] | 3.46 ± 0.1 | 2.5 ± 0.081 | 2.97 ± 0.15 |
| SAGRIHFMDSPSQARDQAEENNYPIVIGMDKGSGWMQIAIYKGGKPKPIRQIPPNNPEINRFIKKLGFTSAG [r5_458_TrROS] | 0.149 ± 0.093 | -0.14 ± 0.16 | 0.0603 ± 0.14 |
| SAGRIRKAIREAFGMDITSIDIDVKENPNGSKKVEIDIHMNNPSQRRRMADAIIEELGYPIKEIEITPMSAG [r5_542_TrROS] | 0.748 ± 0.24 | 0.558 ± 0.2 | 0.629 ± 0.17 |
| SAGRITIDPEDWRIEVKPPNGKKREISPDKIQELLREQKQKGKPPTAEEIAEKIMDEFPGYEVEIHPRSAGG [r19_46_TrROS] | 0.894 ± 0.1 | 1.22 ± 0.073 | 1.06 ± 0.3 |
| SAGRVRLEIVIMIPIDPEQLENLPPSIRDPNGMEIYENGDMIMIKMPIPIPPPPVPDPDGKKMTPEELSAGG [r19_148_TrROS] | 1.44 ± 0.052 | 0.493 ± 0.11 | 0.982 ± 0.24 |
| SAGSAYRIEVYNPETGKKVEIFVFPNGEALVKEEDGFSKIYIDPSKPEQVEAIAKEIEPLGVEVKISPWSAG [r5_791_TrMRF] | 1.4 ± 0.1 | 1.29 ± 0.29 | 1.35 ± 0.34 |
| SAGSFKVTLELVLPNGEKLTVENPEDVLAAIKALPSNVTVRVSTPGESETISITGSDGSVFALKIERFKSAG [r5_506_TrMRF] | 1.68 ± 0.045 | 1.97 ± 0.089 | 1.85 ± 0.1 |
| SAGSIPLDIAKSLGGKTEVSSSPVPLGGGMTATLTTVTATLPDKIVTITITTLADPTVTEVTITTEPIKSAG [r5_323_JUSTAS] | 1.04 ± 0.068 | 1.23 ± 0.039 | 1.14 ± 0.13 |
| SAGSITIDGLTPDKEQEVKITVTLPLPGGGTVTLELTAKVTYDPATGLAKMPITLPDGTVLPLTLPLPESAG [r5_743_JUSTAS] | 2.21 ± 0.12 | 1.93 ± 0.074 | 2.1 ± 0.093 |
| SAGSKKYIPKEVTVYVLGTAPPDMSLEEALKNPNFAVSVPLKATVIYDPETKTARVLLPDGTVVEFPVPSAG [r5_701_TrMRF] | 1.5 ± 0.049 | 1.44 ± 0.11 | 1.52 ± 0.1 |
| SAGSKVIMIPWEDAEKLIEDLPPGKNVTIHWMWPKGPYWTHTIEVKGDKIKIEPLPPNQFPGWRIMITKSAG [r5_85_TrROS] | 1.86 ± 0.13 | 1.45 ± 0.17 | 1.65 ± 0.22 |
| SAGSMEELIANGGTISEERTLPGGEKVFTTTTLTYAPDGTPVINTETTVTTTPPDGTTTPSTSTSTVPLSAG [r5_24_JUSTAS] | 1.04 ± 0.038 | 0.957 ± 0.058 | 1.04 ± 0.035 |
| SAGSMELLEKKEGKLPDGRVYTTETLRNPANGLYEVKTFVFEPGGNPLAEERITYEGDKLVSSETIYLGSAG [r14_828_JUSTAS] | 0.199 ± 0.04 | 0.842 ± 0.075 | 0.594 ± 0.077 |

| Sequence | folding stability dG unfold [1] [kcal/mol] | folding stability dG unfold [2] [kcal/mol] | folding stability dG unfold [3] [kcal/mol] |
| --- | --- | --- | --- |
| SAGSMRITVEITFTSPEGVVKTKTVEVDLSSGSIDLSPEVIEAAKKELGLPPNVTVTLTVVEERPELESAGG [r19_287_JUSTAS] | 4.06 ± 0.22 | 3.37 ± 0.11 | 3.69 ± 0.11 |
| SAGSMTLESEDPSSGLRVTVTVEREPFLLPDGTRVLRRTVTTTVTTPDGEVLESEDVEVVAVLPPDAPLSAG [r5_871_JUSTAS] | 2.4 ± 0.085 | 2.43 ± 0.04 | 2.46 ± 0.077 |
| SAGSMTPEEIRERIEALAEEVGEPPVRVLLKGPSGPLYELDVRFTPEHLEEARRALGVDVVEVEPVPESAGG [r19_50_JUSTAS] | 0.297 ± 0.068 | -0.512 ± 0.32 | -0.00549 ± 0.17 |
| SAGSMVEERVRELLRELDPERPWEIERLPDGTIVARDPETGRWYIFKVEPDGTVTLERVLSLEEYERLSSAG [r5_852_JUSTAS] | 3.37 ± 0.075 | 4.78 ± 0.076 | 4.42 ± 0.11 |
| SAGSNKPIKLKAIIEKPKEKKEIEIEIDPNESIESALKKILEKLEPEWKIVIELPNGIKIEFPPSKEMYSAG [r5_77_TrMRF] | 1.37 ± 0.083 | 0.0227 ± 0.18 | 0.91 ± 0.15 |
| SAGSNTIWYPFPLKEIKEAISSGQSMEEIADELSERHGEEVPIEYPNMKIRIYVPEPGPLYVRIEMTPDSAG [r5_343_TrROS] | 0.519 ± 0.2 | 0.907 ± 0.098 | 0.734 ± 0.14 |
| SAGSPIEELAKKIAEPKYKEEKKPNLTIKVEIEVTVTTSVPVKLPNGEPAYKTTEVKIKVKLTINIPEGSAG [r5_297_JUSTAS] | 3 ± 0.16 | 3.63 ± 0.48 | 3.39 ± 0.46 |
| SAGSPSMVVTVRLTVTTTDPVTGTTTTTTLDIPVSPASLSTPPAQVAAALTAAAPATTIDVTVDSVLLSAGG [r19_189_JUSTAS] | 1.794 ± 0.017 | 1.06 ± 0.06 | 1.51 ± 0.037 |
| SAGSPVLATLRTYDPVAKKWTESVYPVSDPEALIAEVAAELGVEVEVDPATGVATAPLPDGRLVVVTVVSAG [r5_937_JUSTAS] | 1.2 ± 0.036 | 1.56 ± 0.014 | 1.45 ± 0.051 |
| SAGSPVTVPLTLTLTYTVNNPEGPEVLKTETIPLPLVFSPEELDDEETKALLQALVDALPDDVSEVVLESAG [r5_849_JUSTAS] | 1.32 ± 0.02 | 1.43 ± 0.079 | 1.38 ± 0.046 |
| SAGSSLPPSLSKEEIVAALKSQGYTSVKEEKLPDPNKSRMVFTHPNSVVTVEFFPNSVTVTTVPLSVPSSAG [r5_899_JUSTAS] | 0.0126 ± 0.28 | 1.32 ± 0.16 | 0.968 ± 0.23 |
| SAGSSMSSTVRVEVTLTNPVTEVSPDGKTYTTPGDTVAVPVLINVSTTTYYNSSNPSDVVTETTTTVALSAG [r14_274_JUSTAS] | 1.07 ± 0.026 | 1.22 ± 0.19 | 1.18 ± 0.09 |
| SAGSSPSLVLKVEIPVEIKEKRKFLLPNGETKTELTTRTITHTIVVEAGTDPAKLEEALALAEEIKEKKSAG [r14_830_JUSTAS] | -0.85 ± 0.57 | 0.00535 ± 0.31 | -0.276 ± 0.25 |
| SAGSSVSVSYDPNNPDKMTITITDPANGTQVSAVTAPVYKRPDGTIVVPLTITFPASGKVTTKTFTIPASAG [r5_610_JUSTAS] | 1.22 ± 0.019 | 1.13 ± 0.09 | 1.22 ± 0.059 |
| SAGSTAELVGHPDGVELRTELRGEELVFVLPAPKDVLVVAYDPATGALVLGVPVGDRVLVLVRPPPHPSAGG [r19_384_TrMRF] | 2.54 ± 0.079 | 3.88 ± 0.099 | 3.53 ± 0.23 |
| SAGSVTSVEVKEKGEVTVTTETLNIDGKPYTVVSTTTPLLDPEGNVTYTTTTTVYDPNGNKISTTPTSLSAG [r14_465_JUSTAS] | 1.33 ± 0.033 | 2.14 ± 0.032 | 1.84 ± 0.051 |
| SAGTADELVERAKEFARELAEEFGYKVDVDVKVQPTPDYYTIKVTVTFRNPGGMTWRFPFTITIPKEQFSAG [r5_609_TrROS] | 3.45 ± 0.15 | 4.91 ± 0.14 | 4.29 ± 0.16 |
| SAGTAEEAKELARFFARELAPRNGMDVEIPDIKVETDPENGWIRITVEITFRWPHGRKQKHPFTIQIPVSAG [r5_381_TrROS] | 1.48 ± 0.047 | 1.25 ± 0.096 | 1.47 ± 0.063 |
| SAGTEEELVERAKELARELAEELGVEAEAEVTVDPLPDVLVVNLTVRLRLPGGETVELPLTLTFPREFLSAG [r5_609_TrMRF] | 2.71 ± 0.095 | 3.3 ± 0.035 | 3.08 ± 0.05 |
| SAGTIIIPMKEIREELGYPPGSPPSQMRDRIRDLIRRLYPRGIRPTDIDIESNGDNWYITVDIKLPPGASAG [r14_158_TrROS] | 2.26 ± 0.058 | 2.76 ± 0.053 | 2.63 ± 0.11 |
| SAGTIKEIAETIAEFMRQNGMNIKVKLTEVDPNDPNYVKVRVEIEMWYYKKNGKPLGPMRHTMTIVIRSAGG [r19_418_TrROS] | 2.84 ± 0.11 | 3.42 ± 0.13 | 2.92 ± 0.29 |
